# Measured values as given in US20230287433, “APTAMERS FOR PERSONAL HEALTH CARE APPLICATIONS” (The Procter & Gamble Company, published 2023).
# B1: Nas.R-2 (ssRNA)
# RNA: GGGUGCAUCGUUUACGCAGAUAGCAGCAGGAAUCAAGCGGUAGGAGUCUAGCAGAAGCUGCUGCUGAGGAAGGAUAUGAG
# modifications: 2'-F pyrimidines (all C and U)
# B2: Nas.R-4 (ssRNA)
# RNA: GGGUGCAUCGUUUACGCGCAACAUAAAAAUUUAAAGUGCUCAGUUGUCAAUCUAUGACUGCUGCUGAGGAAGGAUAUGAG
# modifications: 2'-F pyrimidines (all C and U)
# B3: Nas.R-8 (ssRNA)
# RNA: GGGUGCAUCGUUUACGCGUAAAAAUUAAAGAGAUUAAGGUCCUUAAGCAGUUUUGUCCUGCUGCUGAGGAAGGAUAUGAG
# modifications: 2'-F pyrimidines (all C and U)
# B4: Nas.R-1 (ssRNA)
# RNA: GGGUGCAUCGUUUACGCGAUUAGUCUGAUAAACAAAAAGAUUUCGCUAAAAAUCAAUCUGCUGCUGAGGAAGGAUAUGAG
# modifications: 2'-F pyrimidines (all C and U)
# Columns and labels:
# human serum albumin = human serum albumin (Homo sapiens, UniProt P02768 P02768:25-609); assay: SPR; 250 nM HSA, no significant binding
# Description: (§1) After conjugation of the cystamine moeities to phosphoramidate bonds at the 5′ phosphate group, the aptamer was immobilized on a gold chip by depositing an aliquot of 10 nL of aptamer solution at a concentration of 10 μM onto the surface of the chip. The gold reduces the cystamine to a pair of thiols and then catalyzes the reduction reaction that results in the covalent bond between the gold surface and the thiol groups of the modified aptamers.
# (§2) Solutions of 200 μL of ICAM-1 protein or human serum albumin were flown over the gold chip at a concentration of 250 nM and a flow rate of 50 μL/min using an Openplex Surface Plasmon Resonance System (Horiba, Kyoto, Kyoto, Japan). Thus, the association phase lasted for 4 minutes after injection and was immediately followed by the disassociation phase. The total resonance of the negative control aptamer was subtracted from the total resonance observed for each of the candidate aptamers. The result corresponds to the resonance contribution due to the binding of the protein to the aptamer.
# [1] = target: T1, ICAM-1 extracellular domain (C-terminal His) (Homo sapiens, UniProt P05362 SEQ:1-453); assay: SPR; aptamer immobilized on gold chip; 250 nM ICAM-1; conditions: tags: C-terminal His6; Ray-Biotech 228-21751-2
# Description: as §1, §2
# where Rmax is the maximum resonance due to binding observed, and c is the concentration of the injectant. Finally, the dissociation equilibrium constant kD was calculated as the ratio of kd over ka (see Table 2). The low nanomolar kD values obtained for the different aptamers confirm the strong binding affinity of such molecules towards ICAM-1 and validate the aptamer selection process described in Example 1. As used herein, “kd” refers to the dissociation rate, “ka” refers to the association rate, and “kD” refers to the dissociation equilibrium constant.
# ICAM-1 (on cells) [2] = target: T2, ICAM-1 (on cells) (Homo sapiens, UniProt P05362 SEQ:28-532); assay: HNEpC cells, FAM-RNA 500 nM, 37 C; qPCR binding higher than to HEK293; conditions: tags: endogenous on HNEpC (PromoCell C-21060) or H1-HeLa cells
# [3] = target: T1, ICAM-1 extracellular domain (C-terminal …); assay: ITC; 37 C, potassium phosphate; 1.27 nM at 33 C (tighter); conditions: tags: C-terminal His6; Ray-Biotech 228-21751-2
# Description: (§3) Aptamers as disclosed herein were selected to perform at 37° C. in the SELEX selection process. Further, all experiments relating to performance of aptamers executed on cells grown in culture were performed at 37° C. as well, as this was the appropriate temperature for optimal cell growth and corresponds to body temperature. However, the aptamers are intended to function on the inner surface of the nasal cavity in vivo and said nasal cells show a slightly lower average temperature of 33° C. As such it was important to ensure that the aptamers of the present invention perform at both temperatures. Accordingly, binding analysis was executed using isothermal titration calorimetry (ITC) using Nano ITC (Low Volume of TA Instruments) and following user instructions for the NasD-4.1 aptamer (SEQ ID NO: 244) at 37° C. as well as at 33° C. Specific mutations in sequence (SEQ ID NO: 264-270) were tested to analyze the impact of temperature and secondary structure. 600 nM concentration of the NasD-4.1 aptamer was injected in 11 injections of 4.88 uL each into a 100 nM concentration of ICAM-1 receptor protein in a volume of 193 uL. The same concentration of mutant aptamer was injected into buffer, as well as buffer was injected into the same amount of protein as controls. The ITC experiments were performed at 33° C. and 37° C. in potassium phosphate buffer.
# [4] = target: T1, ICAM-1 extracellular domain (C-terminal …); assay: ITC; 37 C, potassium phosphate; 14.3 nM at 33 C; conditions: tags: C-terminal His6; Ray-Biotech 228-21751-2
# Description: as §3
# [5] = target: T1, ICAM-1 extracellular domain (C-terminal …); assay: ITC; 37 C, potassium phosphate; 18.1 nM at 33 C; conditions: tags: C-terminal His6; Ray-Biotech 228-21751-2
# Description: as §3
# [6] = target: T1, ICAM-1 extracellular domain (C-terminal …); assay: ITC; 37 C, potassium phosphate; 8.86 nM at 33 C; conditions: tags: C-terminal His6; Ray-Biotech 228-21751-2; label: FAM in cell assay; hairpin with dangling 5' and 3' ends
# Description: as §3
# ICAM-1 (on cells) [7] = target: T2, ICAM-1 (on cells); assay: HNEpC cells, 2 h, 500 nM; RH-30 below 500 RFU; conditions: tags: endogenous on HNEpC (PromoCell C-21060) or H1-HeLa cells; label: FAM in cell assay; hairpin with dangling 5' and 3' ends
# Description: (§4) Fluorescein amidite (FAM)-conjugated DNA aptamers were incubated at 500 nM onto cells cultured in 24-well plates for 4 hours at 37° C. in 5% CO2. At specific timepoints (0.5h, 1h, 2h, 4h), the cell media was aspirated, and the wells were washed three times with 1× selection buffer. To elute and lyse the cells, 200ul of 6M urea was applied to the well and incubated at 37° C. for 5 minutes. The urea-aptamer solution was transferred and measured in a 96-well microplate reader at 495 nm absorbance. Samples were measured in triplicate. FIGS. 23 to 26 show the results.
# Maximal binding can be seen after 2 hours, wherein the absolute number of the truncated sequence bound to HNEpC is 2.5 times of the number of the parent aptamer bound. Binding to RH-30 cells is similar for both aptamers, truncated sequence (SEQ ID NO: 244) and parent sequence (SEQ ID NO: 104) and below 500 RFU.
# [8] = target: T1, ICAM-1 extracellular domain (C-terminal …); assay: ITC; 37 C, potassium phosphate; 37 nM at 33 C (weaker); conditions: tags: C-terminal His6; Ray-Biotech 228-21751-2
# Description: as §3
# [9] = target: T1, ICAM-1 extracellular domain (C-terminal …); assay: ITC; 37 C, potassium phosphate; 9.09 nM at 33 C; conditions: tags: C-terminal His6; Ray-Biotech 228-21751-2
# Description: as §3
# [10] = target: T1, ICAM-1 extracellular domain (C-terminal …); assay: ITC; 37 C, potassium phosphate; 10 nM at 33 C; conditions: tags: C-terminal His6; Ray-Biotech 228-21751-2
# Description: as §3
# [11] = target: T1, ICAM-1 extracellular domain (C-terminal …); assay: ITC; 37 C, potassium phosphate; 7.96 nM at 33 C; conditions: tags: C-terminal His6; Ray-Biotech 228-21751-2
# Description: as §3
# ICAM-1 (on cells) [12] = target: T2, ICAM-1 (on cells); assay: HNEpC cells, 0.5 h, 500 nM; RH-30 hardly detectable; conditions: tags: endogenous on HNEpC (PromoCell C-21060) or H1-HeLa cells; label: FAM
# Description: as §4
# Maximal binding of the truncated sequence Nas.D-5 (SEQ ID NO: 245) can be observed after 0.5 hours, wherein more than 2 times of the truncated aptamers bound to HNEpC compared to the parent aptamer. Binding to RH-30 cells was hardly detectable (FIG. 25). […] The absolute number of bound oligonucleotides of the truncated aptamer (SEQ ID NO: 246) is again higher than the number of bound oligonucleotides of the parent sequence (SEQ ID NO: 108).
# T2 sequence (P05362 28-532): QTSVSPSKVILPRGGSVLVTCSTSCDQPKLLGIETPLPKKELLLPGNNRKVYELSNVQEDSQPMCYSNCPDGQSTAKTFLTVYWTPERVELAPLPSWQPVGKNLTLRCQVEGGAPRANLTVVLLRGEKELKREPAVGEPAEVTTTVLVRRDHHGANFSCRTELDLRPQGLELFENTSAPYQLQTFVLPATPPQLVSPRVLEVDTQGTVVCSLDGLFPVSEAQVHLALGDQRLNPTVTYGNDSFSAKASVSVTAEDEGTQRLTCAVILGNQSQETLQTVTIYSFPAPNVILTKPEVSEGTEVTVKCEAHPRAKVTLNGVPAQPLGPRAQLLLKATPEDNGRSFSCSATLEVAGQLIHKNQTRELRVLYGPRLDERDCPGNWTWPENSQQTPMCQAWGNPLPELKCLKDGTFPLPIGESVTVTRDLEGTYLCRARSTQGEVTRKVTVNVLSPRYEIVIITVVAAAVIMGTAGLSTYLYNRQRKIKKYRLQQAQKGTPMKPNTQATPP
# T1 sequence (P05362 28-480): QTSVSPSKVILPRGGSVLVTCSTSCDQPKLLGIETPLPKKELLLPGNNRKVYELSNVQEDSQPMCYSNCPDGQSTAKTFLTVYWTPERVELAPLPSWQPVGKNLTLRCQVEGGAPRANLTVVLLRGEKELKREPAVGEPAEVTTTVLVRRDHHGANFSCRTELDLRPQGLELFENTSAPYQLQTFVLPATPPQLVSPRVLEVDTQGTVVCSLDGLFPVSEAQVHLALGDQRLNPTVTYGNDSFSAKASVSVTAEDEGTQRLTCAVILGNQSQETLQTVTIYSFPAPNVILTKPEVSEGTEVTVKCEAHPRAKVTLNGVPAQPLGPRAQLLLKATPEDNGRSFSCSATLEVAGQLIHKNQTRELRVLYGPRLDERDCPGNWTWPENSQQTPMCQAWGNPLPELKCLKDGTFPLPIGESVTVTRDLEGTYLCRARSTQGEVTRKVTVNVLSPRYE
# Chain of human serum albumin (P02768 25-609, one chain of several): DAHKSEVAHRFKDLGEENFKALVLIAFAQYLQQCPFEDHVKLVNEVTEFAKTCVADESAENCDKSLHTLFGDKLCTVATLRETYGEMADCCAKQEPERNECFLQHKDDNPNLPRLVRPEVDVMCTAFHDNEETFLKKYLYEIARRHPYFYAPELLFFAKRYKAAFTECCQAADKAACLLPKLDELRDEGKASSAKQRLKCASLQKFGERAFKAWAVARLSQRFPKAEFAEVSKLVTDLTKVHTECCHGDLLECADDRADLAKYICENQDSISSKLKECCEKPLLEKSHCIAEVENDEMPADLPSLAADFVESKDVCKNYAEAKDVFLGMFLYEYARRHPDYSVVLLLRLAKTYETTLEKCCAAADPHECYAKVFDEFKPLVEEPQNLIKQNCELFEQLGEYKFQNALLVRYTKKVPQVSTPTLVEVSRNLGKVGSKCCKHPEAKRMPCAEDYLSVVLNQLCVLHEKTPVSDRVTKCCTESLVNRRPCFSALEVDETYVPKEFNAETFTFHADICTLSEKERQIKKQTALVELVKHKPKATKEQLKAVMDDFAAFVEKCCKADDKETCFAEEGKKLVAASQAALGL
binder,measurement,setting,value
B1,binding result,human serum albumin,no binding
same,Kd,[1],0.0702 µM
same,binding signal,ICAM-1 (on cells) [2],17 % surface bound
B2,binding result,human serum albumin,no binding
same,Kd,[1],0.0443 µM
same,binding signal,ICAM-1 (on cells) [2],11 % surface bound
B3,binding result,human serum albumin,no binding
same,Kd,[1],0.0284 µM
same,binding signal,ICAM-1 (on cells) [2],12 % surface bound
GTGCTCAGTTGTCAATCTAAGACTGCTGCTGAGGAAG (ssDNA) [NasD-4.1 State 6],Kd,[3],0.0186 µM
GTGCTCACTTGTCAATCTATGACTGCTGCTCAGGAAG (ssDNA) [NasD-4.1 State 3],Kd,[4],0.0404 µM
GTGGTCAGTTGTGAATCTATGACTGCTGCTGAGGAAG (ssDNA) [NasD-4.1 State 1],Kd,[5],0.00283 µM
GTGCTCAGTTGTCAATCTATGACTGCTGCTGAGGAAG (ssDNA) [Nas.D-4.1],Kd,[6],0.0112 µM
same,binding signal,ICAM-1 (on cells) [7],2.5 fold vs parent Nas.D-4
GTGCTCACTTGTCAATCTATGACTGCTGCTGAGTAAG (ssDNA) [NasD-4.1 State 4],Kd,[8],0.00639 µM
GTGCTCAGTTGTCAAAGAATGACTGCTGCTGAGGAAG (ssDNA) [NasD-4.1 State 7],Kd,[9],0.00677 µM
GAGCTCAGTTGTCAATCTATGACTGCTGCTGAGGAAG (ssDNA) [NasD-4.1 State 2],Kd,[10],0.102 µM
GTGCTCTCTTGTCAATCTATGACTGCTGGAGAGGAAG (ssDNA) [NasD-4.1 State 5],Kd,[11],0.00514 µM
B4,binding result,human serum albumin,no binding
same,Kd,[1],0.0644 µM
GGGCGCACCGTTTACGCGTAAATCGGTCCGCTATT (ssDNA) [Nas.D-5.1],binding signal,ICAM-1 (on cells) [12],> 2 fold vs parent Nas.D-5
